Results as given in paper PMC3448794 (Biochemistry, 2012).

T1: human L-asparaginase (hASNase3), cleaved state (alpha- and beta-chains) (human, UniProt Q7L266 1-167; Q7L266 168-308)
T1 sequence (looked up) 1: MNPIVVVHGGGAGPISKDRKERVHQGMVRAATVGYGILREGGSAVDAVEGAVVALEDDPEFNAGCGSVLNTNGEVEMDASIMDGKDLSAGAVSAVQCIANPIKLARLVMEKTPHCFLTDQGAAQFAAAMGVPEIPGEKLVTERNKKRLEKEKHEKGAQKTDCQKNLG
T1 sequence (looked up) 2: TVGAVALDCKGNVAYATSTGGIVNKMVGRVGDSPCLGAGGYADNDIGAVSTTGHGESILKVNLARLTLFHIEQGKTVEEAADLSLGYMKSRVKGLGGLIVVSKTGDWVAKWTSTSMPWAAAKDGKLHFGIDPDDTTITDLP

T2: alpha-chain of cleaved human L-asparaginase (hASNase3) (human, UniProt Q7L266 1-167)
T2 sequence (looked up): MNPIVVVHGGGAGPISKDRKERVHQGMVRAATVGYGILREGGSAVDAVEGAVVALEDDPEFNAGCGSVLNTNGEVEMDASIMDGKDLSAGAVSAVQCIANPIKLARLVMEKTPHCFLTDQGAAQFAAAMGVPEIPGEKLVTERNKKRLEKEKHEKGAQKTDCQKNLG


Assays:
[1] = target: T1, human L-asparaginase (hASNase3), …; assay: crystal structure
[2] = target: T2, alpha-chain of cleaved human …; assay: crystal structure

binding result [1] | binding result [2] | Binder
binds |  | human L-asparaginase (hASNase3), uncleaved state (enzyme, UniProt Q7L266 1-308, looked up) MNPIVVVHGGGAGPISKDRKERVHQGMVRAATVGYGILREGGSAVDAVEGAVVALEDDPEFNAGCGSVLNTNGEVEMDASIMDGKDLSAGAVSAVQCIANPIKLARLVMEKTPHCFLTDQGAAQFAAAMGVPEIPGEKLVTERNKKRLEKEKHEKGAQKTDCQKNLGTVGAVALDCKGNVAYATSTGGIVNKMVGRVGDSPCLGAGGYADNDIGAVSTTGHGESILKVNLARLTLFHIEQGKTVEEAADLSLGYMKSRVKGLGGLIVVSKTGDWVAKWTSTSMPWAAAKDGKLHFGIDPDDTTITDLP
 | binds | beta-chain of cleaved human L-asparaginase (hASNase3) (domain or fragment, UniProt Q7L266 168-308, looked up) TVGAVALDCKGNVAYATSTGGIVNKMVGRVGDSPCLGAGGYADNDIGAVSTTGHGESILKVNLARLTLFHIEQGKTVEEAADLSLGYMKSRVKGLGGLIVVSKTGDWVAKWTSTSMPWAAAKDGKLHFGIDPDDTTITDLP
